Measurements taken from patent publication US20240117018A1.

What was measured:
Experiment in all cases: cell-based or functional assay
[1] = molecular target: HIV-1 Env of pseudovirus HIV-16055-2.3 (HIV-1)
[2] = molecular target: HIV-1 Env of pseudovirus 62357_14_D3_4589 (HIV-1)
[3] = molecular target: HIV-1 Env of pseudovirus 1394C9G1(Rev-) (HIV-1)
[4] = molecular target: HIV-1 Env of pseudovirus ZM109F.PB4 (HIV-1)
[5] = molecular target: HIV-1 Env of pseudovirus Ce704809221_1B3 (HIV-1)
[6] = molecular target: HIV-1 Env of pseudovirus AC10.0.29 (HIV-1)
[7] = molecular target: HIV-1 Env of pseudovirus CAP45.2.00.G3 (HIV-1)
[8] = molecular target: HIV-1 Env of pseudovirus CNE52 (HIV-1)
[9] = molecular target: HIV-1 Env of pseudovirus 246F C1G (HIV-1)
[10] = molecular target: HIV-1 Env of pseudovirus ZM135M.PL10a (HIV-1)
[11] = molecular target: HIV-1 Env of pseudovirus 6240_08_TA5_4622 (HIV-1)
[12] = molecular target: HIV-1 Env of pseudovirus PVO.4 (HIV-1)
[13] = molecular target: HIV-1 Env of pseudovirus HIV-001428-2.42 (HIV-1)
[14] = molecular target: HIV-1 Env of pseudovirus TRJO4551.58 (HIV-1)
[15] = molecular target: HIV-1 Env of pseudovirus CAAN5342.A2 (HIV-1)
[16] = molecular target: HIV-1 Env of pseudovirus Ce0682_E4 (HIV-1)
[17] = molecular target: HIV-1 Env of pseudovirus Ce703010054_2A2 (HIV-1)
[18] = molecular target: HIV-1 Env of pseudovirus ZM233M.PB6 (HIV-1)
[19] = molecular target: HIV-1 Env of pseudovirus Ce2010_F5 (HIV-1)
[20] = molecular target: HIV-1 Env of pseudovirus WITO4160.33 (HIV-1)
[21] = molecular target: HIV-1 Env of pseudovirus 6244_13_B5_4576 (HIV-1)
[22] = molecular target: HIV-1 Env of pseudovirus Q769.d22 (HIV-1)
[23] = molecular target: HIV-1 Env of pseudovirus Q23.17 (HIV-1)
[24] = molecular target: HIV-1 Env of pseudovirus CAP210.2.00.E8 (HIV-1)
[25] = molecular target: HIV-1 Env of pseudovirus THRO4156.18 (HIV-1)
[26] = molecular target: HIV-1 Env of pseudovirus CNE30 (HIV-1)
[27] = molecular target: HIV-1 Env of pseudovirus HIV-16845-2.22 (HIV-1)
[28] = molecular target: HIV-1 Env of pseudovirus Ce1172_H1 (HIV-1)
[29] = molecular target: HIV-1 Env of pseudovirus 1054_07_TC4_1499 (HIV-1)
[30] = molecular target: HIV-1 Env of pseudovirus ZM247v1(Rev-) (HIV-1)
[31] = molecular target: HIV-1 Env of pseudovirus Ce0393_C3 (HIV-1)
[32] = molecular target: HIV-1 Env of pseudovirus 6535.3 (HIV-1)
[33] = molecular target: HIV-1 Env of pseudovirus MS208.A1 (HIV-1)
[34] = molecular target: HIV-1 Env of pseudovirus TRO.11 (HIV-1)
[35] = molecular target: HIV-1 Env of pseudovirus SC05_8C11_2344 (HIV-1)
[36] = molecular target: HIV-1 Env of pseudovirus CNE5 (HIV-1)
[37] = molecular target: HIV-1 Env of pseudovirus CNE8 (HIV-1)

NIH 45-46 (antibody)
IC50 [1]: 0.02 µg/mL
IC80 [1]: 0.06 µg/mL
IC50 [2]: 0.05 µg/mL
IC80 [2]: 0.22 µg/mL
IC50 [3]: 0.09 µg/mL
IC80 [3]: 0.38 µg/mL
IC50 [4]: 0.22 µg/mL
IC80 [4]: 0.22 µg/mL
IC50 [5]: 0.15 µg/mL
IC80 [5]: 0.88 µg/mL
IC50 [6]: 0.42 µg/mL
IC80 [6]: 1.49 µg/mL
IC50 [7]: > 50 µg/mL
IC80 [7]: > 50 µg/mL
IC50 [8]: 0.03 µg/mL
IC80 [8]: 0.12 µg/mL
IC50 [9]: > 50 µg/mL
IC80 [9]: > 50 µg/mL
IC50 [10]: 0.36 µg/mL
IC80 [10]: 3.11 µg/mL
IC50 [11]: 0.44 µg/mL
IC80 [11]: 1.55 µg/mL
IC50 [12]: 0.17 µg/mL
IC80 [12]: 0.47 µg/mL
IC50 [13]: < 0.001 µg/mL
IC80 [13]: 0.01 µg/mL
IC50 [14]: 0.01 µg/mL
IC80 [14]: 0.05 µg/mL
IC50 [15]: 0.11 µg/mL
IC80 [15]: 0.33 µg/mL
IC50 [16]: 0.07 µg/mL
IC80 [16]: 0.25 µg/mL
IC50 [17]: 0.22 µg/mL
IC80 [17]: 0.97 µg/mL
IC50 [18]: 1.86 µg/mL
IC80 [18]: 16.5 µg/mL
IC50 [19]: 0.13 µg/mL
IC80 [19]: 0.43 µg/mL
IC50 [20]: 0.01 µg/mL
IC80 [20]: 0.08 µg/mL
IC50 [21]: 0.07 µg/mL
IC80 [21]: 0.26 µg/mL
IC50 [22]: 0.01 µg/mL
IC80 [22]: 0.04 µg/mL
IC50 [23]: 0.14 µg/mL
IC80 [23]: 0.6 µg/mL
IC50 [24]: > 50 µg/mL
IC80 [24]: > 50 µg/mL
IC50 [25]: 1.59 µg/mL
IC80 [25]: 6.02 µg/mL
IC50 [26]: 0.34 µg/mL
IC80 [26]: 1.48 µg/mL
IC50 [27]: 2.05 µg/mL
IC80 [27]: 12.1 µg/mL
IC50 [28]: > 50 µg/mL
IC80 [28]: > 50 µg/mL
IC50 [29]: 0.07 µg/mL
IC80 [29]: 0.61 µg/mL
IC50 [30]: 1.64 µg/mL
IC80 [30]: > 50 µg/mL
IC50 [31]: 0.32 µg/mL
IC80 [31]: 1.07 µg/mL
IC50 [32]: 0.14 µg/mL
IC80 [32]: 0.28 µg/mL
IC50 [33]: 0.09 µg/mL
IC80 [33]: 0.6 µg/mL
IC50 [34]: 1.9 µg/mL
IC80 [34]: 9.56 µg/mL
IC50 [35]: 0.14 µg/mL
IC80 [35]: 0.38 µg/mL

10E8 (antibody)
IC50 neutralization (TZM.bl) [36]: 1.41 µg/mL
IC80 neutralization (TZM.bl) [36]: 9.64 µg/mL

8ANC195 (antibody)
IC50 [1]: 15.3 µg/mL
IC80 [1]: > 50 µg/mL
IC50 [2]: > 50 µg/mL
IC80 [2]: > 50 µg/mL
IC50 [3]: > 50 µg/mL
IC80 [3]: > 50 µg/mL
IC50 [4]: > 30 µg/mL
IC80 [4]: > 30 µg/mL
IC50 [5]: 0.48 µg/mL
IC80 [5]: 3.52 µg/mL
IC50 [6]: 0.88 µg/mL
IC80 [6]: 7 µg/mL
IC50 [7]: 28.3 µg/mL
IC80 [7]: > 50 µg/mL
IC50 [8]: 5.59 µg/mL
IC80 [8]: 43.1 µg/mL
IC50 [9]: 12.8 µg/mL
IC80 [9]: > 50 µg/mL
IC50 [10]: > 50 µg/mL
IC80 [10]: > 50 µg/mL
IC50 [11]: > 50 µg/mL
IC80 [11]: > 50 µg/mL
IC50 [12]: 0.52 µg/mL
IC80 [12]: 1.87 µg/mL
IC50 [13]: > 50 µg/mL
IC80 [13]: > 50 µg/mL
IC50 [14]: 0.19 µg/mL
IC80 [14]: 1.17 µg/mL
IC50 [15]: > 50 µg/mL
IC80 [15]: > 50 µg/mL
IC50 [16]: 0.2 µg/mL
IC80 [16]: 1.29 µg/mL
IC50 [17]: 13.6 µg/mL
IC80 [17]: > 50 µg/mL
IC50 [18]: 7.39 µg/mL
IC80 [18]: 43.5 µg/mL
IC50 [19]: > 50 µg/mL
IC80 [19]: > 50 µg/mL
IC50 [20]: > 50 µg/mL
IC80 [20]: > 50 µg/mL
IC50 [21]: > 50 µg/mL
IC80 [21]: > 50 µg/mL
IC50 [22]: 0.26 µg/mL
IC80 [22]: 1.2 µg/mL
IC50 [23]: 2.55 µg/mL
IC80 [23]: 2.55 µg/mL
IC50 [24]: > 50 µg/mL
IC80 [24]: > 50 µg/mL
IC50 [25]: > 50 µg/mL
IC80 [25]: > 50 µg/mL
IC50 [26]: 7.52 µg/mL
IC80 [26]: 40.5 µg/mL
IC50 [27]: 3.3 µg/mL
IC80 [27]: 20.1 µg/mL
IC50 [28]: 42.3 µg/mL
IC80 [28]: > 50 µg/mL
IC50 [29]: 1.02 µg/mL
IC80 [29]: 6.75 µg/mL
IC50 [30]: 3.41 µg/mL
IC80 [30]: 25.1 µg/mL
IC50 [31]: 6.77 µg/mL
IC80 [31]: > 50 µg/mL
IC50 [32]: 0.2 µg/mL
IC80 [32]: 0.91 µg/mL
IC50 [33]: > 50 µg/mL
IC80 [33]: > 50 µg/mL
IC50 [34]: 0.18 µg/mL
IC80 [34]: 0.89 µg/mL
IC50 [35]: 0.47 µg/mL
IC80 [35]: 3.06 µg/mL

10-1074 (antibody)
IC50 neutralization (TZM.bl) [36]: > 50 µg/mL
IC80 neutralization (TZM.bl) [36]: > 50 µg/mL
IC50 neutralization (TZM.bl) [37]: > 50 µg/mL
IC80 neutralization (TZM.bl) [37]: > 50 µg/mL

PG9 (antibody)
IC50 neutralization (TZM.bl) [36]: 0.018 µg/mL
IC80 neutralization (TZM.bl) [36]: 0.051 µg/mL
